# From the supplement of paper PMC9112550, “Optimization of the antimicrobial peptide Bac7 by deep mutational scanning” (BMC Biology, 2022)
# Tested on: Escherichia coli TOP10
# Assay: shrunken log2 fold change of peptide-encoding DNA abundance (4.5 h post-induction vs induction); higher = less antimicrobial activity (less host growth inhibition)
# Conditions: time post-induction: 4.5 h; library: site-saturation at positions 5, 18, 19, 20
# 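Further: peptides expressed intracellularly from a pBAD plasmid library in pooled LB shake-flask culture, induced with 0.3% L-arabinose, DNA abundance read by NGS, three biological replicates, DESeq2 with apeglm shrinkage.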
row,Sequence,shrunken log2 fold change
1,RRIRARPPRLPRPRPRPEGAPRP,1.37
2,RRIRARPPRLPRPRPRPEFDPRP,1.44
3,RRIRIRPPRLPRPRPRPRQYPRP,-0.258
4,RRIRYRPPRLPRPRPRPVQQPRP,-0.00101
5,RRIRMRPPRLPRPRPRPQGCPRP,-0.00385
6,RRIRNRPPRLPRPRPRPRNWPRP,-0.149
7,RRIRFRPPRLPRPRPRPVVPPRP,-0.196
8,RRIRTRPPRLPRPRPRPQNMPRP,-0.654
9,RRIRMRPPRLPRPRPRPNHAPRP,-0.113
10,RRIRLRPPRLPRPRPRPQWGPRP,0.00618
11,RRIRWRPPRLPRPRPRPVHEPRP,0.21
12,RRIRARPPRLPRPRPRPHNIPRP,-0.124
13,RRIRTRPPRLPRPRPRPCIGPRP,-0.0176
14,RRIRNRPPRLPRPRPRPFSYPRP,-0.171
15,RRIRSRPPRLPRPRPRPKESPRP,0.284
16,RRIRARPPRLPRPRPRPGKIPRP,0.0623
17,RRIRERPPRLPRPRPRPDPGPRP,0.0879
18,RRIRMRPPRLPRPRPRPHWRPRP,0.0569
19,RRIRARPPRLPRPRPRPHYHPRP,-0.332
20,RRIRKRPPRLPRPRPRPPANPRP,0.48
21,RRIRARPPRLPRPRPRPLDDPRP,0.875
22,RRIRWRPPRLPRPRPRPMLMPRP,-0.0339
23,RRIRLRPPRLPRPRPRPGDCPRP,0.0644
24,RRIRARPPRLPRPRPRPSGMPRP,0.197
25,RRIRIRPPRLPRPRPRPEMNPRP,-0.0353

row,Sequence,shrunken log2 fold change
1,RRIRNRPPRLPRPRPRPCNKPRP,-0.334
2,RRIRHRPPRLPRPRPRPKPTPRP,0.0736
3,RRIRSRPPRLPRPRPRPFPTPRP,-0.101
4,RRIRYRPPRLPRPRPRPAFSPRP,0.0115
5,RRIRFRPPRLPRPRPRPHFDPRP,-0.107
6,RRIRTRPPRLPRPRPRPMLWPRP,0.143
7,RRIRHRPPRLPRPRPRPTTGPRP,-0.117
8,RRIRCRPPRLPRPRPRPDDEPRP,0.33
9,RRIRERPPRLPRPRPRPDYCPRP,-0.00145
10,RRIRVRPPRLPRPRPRPMEYPRP,-0.0697
11,RRIRRRPPRLPRPRPRPRWEPRP,0.0983
12,RRIRQRPPRLPRPRPRPRSTPRP,0.203
13,RRIRIRPPRLPRPRPRPTVYPRP,-0.177
14,RRIRLRPPRLPRPRPRPKWTPRP,0.0422
15,RRIRVRPPRLPRPRPRPCVLPRP,-0.44
16,RRIRPRPPRLPRPRPRPPEWPRP,0.443
17,RRIRPRPPRLPRPRPRPPRYPRP,0.237
18,RRIRFRPPRLPRPRPRPLWLPRP,-0.0557
19,RRIRKRPPRLPRPRPRPIILPRP,-0.11
20,RRIRGRPPRLPRPRPRPDDRPRP,0.814
21,RRIRQRPPRLPRPRPRPWSHPRP,-0.105
22,RRIRARPPRLPRPRPRPITWPRP,0.0845
23,RRIRSRPPRLPRPRPRPSRAPRP,0.281
24,RRIRMRPPRLPRPRPRPEHPPRP,0.75
25,RRIRIRPPRLPRPRPRPYLGPRP,-0.279

row,Sequence,shrunken log2 fold change
1,RRIRHRPPRLPRPRPRPKIMPRP,-0.811
2,RRIRVRPPRLPRPRPRPDNYPRP,-0.222
3,RRIRCRPPRLPRPRPRPVGSPRP,0.0443
4,RRIRRRPPRLPRPRPRPICQPRP,0.133
5,RRIRTRPPRLPRPRPRPSFDPRP,-0.365
6,RRIRIRPPRLPRPRPRPKPHPRP,-0.0472
7,RRIRIRPPRLPRPRPRPNVWPRP,-0.309
8,RRIRRRPPRLPRPRPRPSQIPRP,0.092
9,RRIRYRPPRLPRPRPRPWTAPRP,-0.283
10,RRIRVRPPRLPRPRPRPTIGPRP,0.178
11,RRIRTRPPRLPRPRPRPHEVPRP,-0.00804
12,RRIRMRPPRLPRPRPRPGGWPRP,1.32
13,RRIRARPPRLPRPRPRPGAPPRP,0.703
14,RRIRQRPPRLPRPRPRPDQKPRP,0.019
15,RRIRTRPPRLPRPRPRPGDLPRP,-0.0395
16,RRIRCRPPRLPRPRPRPNWDPRP,-0.185
17,RRIRQRPPRLPRPRPRPCRMPRP,-0.126
18,RRIRARPPRLPRPRPRPTWIPRP,0.291
19,RRIRKRPPRLPRPRPRPMFPPRP,-0.187
20,RRIRSRPPRLPRPRPRPACLPRP,0.0251
21,RRIRWRPPRLPRPRPRPFQHPRP,0.0415
22,RRIRWRPPRLPRPRPRPGKFPRP,0.26
23,RRIRMRPPRLPRPRPRPYKYPRP,-0.851
24,RRIRIRPPRLPRPRPRPLSCPRP,-0.253
25,RRIRVRPPRLPRPRPRPDMNPRP,-0.548
